Experimental data: US12157773 (SYNTHEKINE, dated 2024)
Changes are numbered by the printed parent chain.

T1: hIL27Rα ECD antigen (human, UniProt Q6UWB1 33-516)
T1 construct: Antigen of biopanning and PE-ELISA; also called ECD of the human IL27Rα; IL27Rα coated on the plate
T1 sequence: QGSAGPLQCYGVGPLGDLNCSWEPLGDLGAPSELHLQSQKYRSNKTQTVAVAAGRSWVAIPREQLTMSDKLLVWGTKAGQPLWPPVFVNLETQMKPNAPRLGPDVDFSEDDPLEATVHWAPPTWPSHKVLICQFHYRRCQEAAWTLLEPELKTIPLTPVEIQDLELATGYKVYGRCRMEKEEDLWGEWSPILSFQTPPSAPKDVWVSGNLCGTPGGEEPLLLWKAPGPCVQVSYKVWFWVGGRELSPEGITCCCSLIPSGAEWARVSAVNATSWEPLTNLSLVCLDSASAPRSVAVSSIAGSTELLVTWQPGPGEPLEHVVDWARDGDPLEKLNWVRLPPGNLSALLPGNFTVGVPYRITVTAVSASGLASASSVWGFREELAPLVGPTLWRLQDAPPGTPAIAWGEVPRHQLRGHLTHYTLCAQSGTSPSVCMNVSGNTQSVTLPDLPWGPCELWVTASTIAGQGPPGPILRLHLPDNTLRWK

T2: mIL27Rα ECD antigen (mouse, UniProt O70394 25-510)
T2 construct: Antigen of biopanning and PE-ELISA; The immunogen was made as a fusion of the ECD (residues 25-510 of the precursor) with the human IgG1 hinge and Fc; also called ECD of mouse IL27Rα; IL27Rα coated on the plate
T2 sequence: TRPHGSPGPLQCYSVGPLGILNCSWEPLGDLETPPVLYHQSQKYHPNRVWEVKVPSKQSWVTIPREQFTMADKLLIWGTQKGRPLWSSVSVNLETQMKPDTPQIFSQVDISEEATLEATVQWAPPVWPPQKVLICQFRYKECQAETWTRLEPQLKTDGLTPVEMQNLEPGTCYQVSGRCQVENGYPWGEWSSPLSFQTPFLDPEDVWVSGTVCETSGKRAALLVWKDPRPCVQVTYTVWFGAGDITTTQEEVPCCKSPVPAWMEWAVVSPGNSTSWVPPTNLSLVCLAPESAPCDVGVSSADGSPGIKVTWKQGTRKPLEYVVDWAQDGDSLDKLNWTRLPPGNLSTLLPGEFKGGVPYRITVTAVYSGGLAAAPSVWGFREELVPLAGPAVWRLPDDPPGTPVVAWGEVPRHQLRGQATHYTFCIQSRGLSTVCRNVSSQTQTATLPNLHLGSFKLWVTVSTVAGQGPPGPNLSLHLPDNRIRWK

B1: hIL27Ra VHH6 (VHH)
VHH: QVQLQESGGGLVQPGGSLRLSCAASGFSFSSYAMKWVRQAPGKGLEWVSTISSGGSSTNYADSVKGRFTISRDNAKNTLYLQLNSLKIEDTAMYYCAKAIVPTGATMERGQGTQVTVSS
notes: Camel VHH as periplasmic extract of a phage clone in the PE-ELISA; also called anti-human IL27Rα VHH; not shown: HA/His tag from the pMECS phagemid
B2: mIL27Ra VHH5 (VHH)
VHH: QVQLQESGGGSVQAGGSLRLSCAVSGDSTYSMGWFRQPPGKEREGVAAIAKDGITIHADSVKGRFTISKDNAKNTLYLQMNSLKPEDTAMYYCAAHRPYGPPLNPRWYTYWGQGTQVTVSS
notes: Camel VHH as periplasmic extract of a phage clone in the PE-ELISA; also called anti-mouse IL27Rα VHH; not shown: HA/His tag from the pMECS phagemid
B3: mIL27Ra VHH9 (VHH)
VHH: B2 VHH with N81S
notes: as for B2
B4: mIL27Ra VHH8 (VHH)
VHH: B2 VHH with A50P, K51T
notes: as for B2
B5: mIL27Ra VHH10 (VHH)
VHH: B2 VHH with A50G
notes: as for B2
B6: mIL27Ra VHH14 (VHH)
VHH: B2 VHH with A50T, K69G, S82N
notes: as for B2
B7: mIL27Ra VHH1 (VHH)
VHH: QVQLQESGGGSVQAGGSLRLSCAASKNSNFMGWFRQAPGKEREGVAAMMTKNNNTYYADSVKGRFTISHDNAKNTVYLQMDSLKPEDTAVYYCAAVYRTRRLRVLEAANFDYWGQGTQVTVSS
notes: as for B2
B8: hIL27Ra VHH7 (VHH)
VHH: QVQLQESGGGLVQPGGSLRLSCAASGFTFSSYPMSWVRQAPGKGLEWISTISAGGDTTLYADSVKGRFTSSRDNAKNTLYLQLNSLKTEDTAIYYCAKRIDCNSGYCYRRNYWGQGTQVTVSS
notes: as for B1
B9: hIL27Ra VHH8 (VHH)
VHH: B8 VHH with L11S, P14V
notes: as for B1
B10: hIL27Ra VHH20 (VHH)
VHH: B8 VHH with I48V, A53S, I93M, R109K, N111S
notes: as for B1
B11: mIL27Ra VHH2 (VHH)
VHH: QVQLQESGGGSVQAGGSLRLSCTASGYTSSRYCMGWFRQTPGKKREGVAAIYTGGGTTFYHGSVKGRFTISQDNTTNTVYLQMHNLKPEDTAMYYCAAGPVTRACDEYNYWGQGTQVTVSS
notes: as for B2
B12: hIL27Ra VHH10 (VHH)
VHH: QVQLQESGGGSVQAGGSLRLSCRASGSTYSNYCLGWFRQITGKEREGVAVINWVGGMLYFADSVKGRFTVSQDQAKNTLYLQMNSLKPEDTAMYYCAAESVSSFSCGGWLTRPDRVPYWGQGTQVTVSS
notes: as for B1
B13: hIL27Ra VHH12 (VHH)
VHH: B12 VHH with G16E, L79V, Q82E, A98T
notes: as for B1
B14: hIL27Ra VHH11 (VHH)
VHH: B12 VHH with I40S, Q74H, L79V, Y80T, D114G
notes: as for B1
B15: hIL27Ra VHH22 (VHH)
VHH: B12 VHH with I40T, L79V
notes: as for B1
B16: hIL27Ra VHH23 (VHH)
VHH: B12 VHH with G26R, T28P, S30G, I40S, Q74H, L79V, Y80T
notes: as for B1
B17: hIL27Ra VHH16 (VHH)
VHH: B12 VHH with L79V, V101A
notes: as for B1
B18: mIL27Ra VHH6 (VHH)
VHH: QVQLQESGGGSVQAGGSLRLSCAASGYTYSSYCMAWFRQAPGKEREGVAAIDSDGSTSYADSVKGRFTISKDNAKNTLYLQMNSLKPEDTAMYYCAAASGRCLGPGIRSLIWGQGTQVTVSS
notes: as for B2
B19: mIL27Ra VHH7 (VHH)
VHH: QVQLQESGGGSVQAGGSLRLSCAVSGDSTYSMGWFRQPPGKEREGVAAITKDITIHADSVKGRFTISKDNAKNTLYLQMNSLKPEDTAMYYCAAHRPYGPPLNPRWYTYWGQGTQVTVSS
notes: as for B2
B20: mIL27Ra VHH11 (VHH)
VHH: B19 VHH with K83R
notes: as for B2
B21: hIL27Ra VHH4 (VHH)
VHH: QVQLQESGGGLVQPGESLRLSCTASGFTFSNYAMSWVRQAPGKGLEWVSGINVAYGITSYADSVKGRFTISRDNTKNTLYLQLNSLKTEDTAIYYCVKHSGTTIPRGFISYTKRGQGTQVTVSS
notes: as for B1
B22: hIL27Ra VHH14 (VHH)
VHH: QVQLQESGGGSVQAGGSLRLSCVASGYVSCDYFLPSWYRQAPGKEREFVSIIDGTGSTSYAASVKGRFTASQDKGKNIAYLQMNSLKPEDTAMYYCKASCVRGRAISEYWGQGTQVTVSS
notes: as for B1
B23: hIL27Ra VHH13 (VHH)
VHH: B22 VHH with K74R, A105T
notes: as for B1
B24: hIL27Ra VHH5 (VHH)
VHH: B22 VHH with V23T, I51V
notes: as for B1
B25: hIL27Ra VHH18 (VHH)
VHH: B22 VHH with A105G
notes: as for B1
B26: hIL27Ra VHH3 (VHH)
VHH: B22 VHH with Q72E, I106V
notes: as for B1
B27: hIL27Ra VHH17 (VHH)
VHH: QVQLQESGGGLVQPGGSLRLSCAASGFTFSLSGMSWVRQAPGKGLEWVSAISSGGASTYYTDSVKGRFTISRDNAKNMLYLQLNSLKTEDTAMYYCAKGGSGYGDASRMTSPGSQGTQVTVSS
notes: as for B1
B28: hIL27Ra VHH24 (VHH)
VHH: B27 VHH with L31H, A50T, S52N
notes: as for B1
B29: hIL27Ra VHH2 (VHH)
VHH: B27 VHH with M78I
notes: as for B1
B30: mIL27Ra VHH3 (VHH)
VHH: QVQLQESGGGSVQAGGSLRLSCAGSGYSLSNYCMGWFRQAPGQGREGVASLRFVSGATFYADSVKGRFTIAQDNAKNTLYLQMNSLKPEDTAMYYCGIKSRGICGGRLVDVDFGNWGQGTQVTVSS
notes: as for B2
B31: mIL27Ra VHH13 (VHH)
VHH: QVQLQESGGGSVQAGGSLRLSCAASGYSINRMGWFRQAPGKEREGVAAISIGGGRTYYADSVKGRFTISQDNAKNTVDLQMNSLKPEDTAMYYCAAGLVYGEAWLDSRHYNKWGQGTQVTVSS
notes: as for B2
B32: mIL27Ra VHH4 (VHH)
VHH: B31 VHH with R55Q
notes: as for B2
B33: mIL27Ra VHH12 (VHH)
VHH: B31 VHH with A14T, G33A, G54D, N75H
notes: as for B2

How the values were obtained:
[1] = target: T1, hIL27Rα ECD antigen; experiment: PE-ELISA, periplasmic extract on antigen-coated plate
Description: (§1) Upon completion of the biopanning of Example 3, three 96-well plates of individual phage clones were isolated in order to perform periplasmic extract ELISA (PE-ELISA) on IL27Rα coated plates to identify positive VHH binders that selectively bound […]. A 96-well plate was coated with IL27Rα and PBS under the same conditions. Next, wells were blocked at 37° C. for 1 h. Then, 100 µl of extracted antibodies was added to each well and incubated for 1 h. Subsequently, 100 µl of anti-tag polyclonal antibody conjugated to HRP was added to each well and incubated at 37° C. for 1 h. Plates were developed with TMB substrate. The reaction was stopped by the addition of H2SO4. Absorbance at 450 nm was read on a microtiter plate reader. […] Positive clones were sequenced, and sequences analyzed to identify unique clonotypes.

[2] = target: T2, mIL27Rα ECD antigen; experiment: as above
Description: as §1

Row | Binder | binding result [1] | binding result [2]
1 | B1 | binds | 
2 | B2 |  | binds
3 | B3 |  | binds
4 | B4 |  | binds
5 | B5 |  | binds
6 | B6 |  | binds
7 | B7 |  | binds
8 | B8 | binds | 
9 | B9 | binds | 
10 | B10 | binds | 
11 | B11 |  | binds
12 | B12 | binds | 
13 | B13 | binds | 
14 | B14 | binds | 
15 | B15 | binds | 
16 | B16 | binds | 
17 | B17 | binds | 

Row | Binder | binding result [1] | binding result [2]
18 | B18 |  | binds
19 | B19 |  | binds
20 | B20 |  | binds
21 | B21 | binds | 
22 | B22 | binds | 
23 | B23 | binds | 
24 | B24 | binds | 
25 | B25 | binds | 
26 | B26 | binds | 
27 | B27 | binds | 
28 | B28 | binds | 
29 | B29 | binds | 
30 | B30 |  | binds
31 | B31 |  | binds
32 | B32 |  | binds
33 | B33 |  | binds
